Key:
[1] = biological target: protease-activated receptor 2 (PAR-2) on human eosinophils / BEAS-2B airway epithelial cells (UniProt P55085)
[2] = tested on: T1, fluorescent quenched PAR-2 peptide substrate Abz-SKGRSLIGK(Dnp)D
T1 sequence: SKGRSLIGK

protease-activated receptor 2 (PAR-2) on human eosinophils / BEAS-2B airway epithelial cells, sequence (P55085 whole entry, looked up): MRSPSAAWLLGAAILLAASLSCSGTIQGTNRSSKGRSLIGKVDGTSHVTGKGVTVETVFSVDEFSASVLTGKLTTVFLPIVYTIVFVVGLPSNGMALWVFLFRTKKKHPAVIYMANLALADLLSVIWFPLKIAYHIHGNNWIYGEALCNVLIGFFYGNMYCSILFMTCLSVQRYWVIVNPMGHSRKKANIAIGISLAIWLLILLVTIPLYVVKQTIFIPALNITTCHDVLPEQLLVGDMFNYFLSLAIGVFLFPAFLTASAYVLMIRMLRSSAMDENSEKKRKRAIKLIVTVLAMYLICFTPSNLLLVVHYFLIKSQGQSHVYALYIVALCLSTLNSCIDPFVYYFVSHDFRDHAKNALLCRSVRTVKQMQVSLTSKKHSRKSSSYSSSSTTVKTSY

Substance | deglycosylation and downregulation of PAR-2 in eosinophils (Western blot) [1] | in vitro assay for PAR-2 cleavage and activation (fluorescent quenched peptide substrate) [2]
Aspergillus xylanase | The 41 kDa and 70 kDa PAR-2 molecules were deglycosylated by xylanase temporarily | 
trypsin |  | trypsin, as positive control, clearly cleaved this peptide

From US7662400
